The target of the test is TWEAKR (TNFRSF12A, FN14), human, on tumor cell lines (human) (UniProt Q9NP84). Kind of test: cell-based or functional assay.

As to “recombinant human TWEAK (R&D, #1090-TW-025/CF) (ligand)”, the % Inhibition of proliferation, 786-O cells, 96h, 100 ng/ml was found to be 12%; the % Inhibition of proliferation, A253 cells, 72h, 300 ng/ml is greater than 100%; the % Inhibition of proliferation, HT-29 cells, 24h, 300 ng/ml came out at 98%; the % Inhibition of proliferation, LOVO cells, 72h, 100 ng/ml came to 53%. This substance also yielded a % Inhibition of proliferation, NCI-H1975 cells, 72h, 100 ng/ml of 56%; a % Inhibition of proliferation, SW480 cells, 72h, 100 ng/ml of 0%; a Fold induction of Caspase 3/7, 786-O cells, 300 ng/ml of 1.45 fold; a Fold induction of Caspase 3/7, A253 cells, 300 ng/ml of 1.53 fold. Besides, the Fold induction of Caspase 3/7, HT-29 cells, 300 ng/ml was 2.31 fold; the Fold induction of Caspase 3/7, NCI-H322 cells, 100 ng/ml was found to be 1.39 fold; the Fold induction of Caspase 3/7, WiDr cells, 300 ng/ml turned out to be 1.22 fold.

For the origin of these results see patent US20160237160A1, “ANTI-TWEAKR ANTIBODIES AND USES THEREOF” (BAYER PHARMA AKTIENGESELLSCHAFT, priority 2013, published 2016).
